The values that follow are results of earlier work, collected in publication PMC9741594.

In this series the target is T1, Internalin A (on whole Listeria monocytogenes cells) (Listeria monocytogenes (strain not given in the material)) (UniProt P0DJM0).
T1 sequence: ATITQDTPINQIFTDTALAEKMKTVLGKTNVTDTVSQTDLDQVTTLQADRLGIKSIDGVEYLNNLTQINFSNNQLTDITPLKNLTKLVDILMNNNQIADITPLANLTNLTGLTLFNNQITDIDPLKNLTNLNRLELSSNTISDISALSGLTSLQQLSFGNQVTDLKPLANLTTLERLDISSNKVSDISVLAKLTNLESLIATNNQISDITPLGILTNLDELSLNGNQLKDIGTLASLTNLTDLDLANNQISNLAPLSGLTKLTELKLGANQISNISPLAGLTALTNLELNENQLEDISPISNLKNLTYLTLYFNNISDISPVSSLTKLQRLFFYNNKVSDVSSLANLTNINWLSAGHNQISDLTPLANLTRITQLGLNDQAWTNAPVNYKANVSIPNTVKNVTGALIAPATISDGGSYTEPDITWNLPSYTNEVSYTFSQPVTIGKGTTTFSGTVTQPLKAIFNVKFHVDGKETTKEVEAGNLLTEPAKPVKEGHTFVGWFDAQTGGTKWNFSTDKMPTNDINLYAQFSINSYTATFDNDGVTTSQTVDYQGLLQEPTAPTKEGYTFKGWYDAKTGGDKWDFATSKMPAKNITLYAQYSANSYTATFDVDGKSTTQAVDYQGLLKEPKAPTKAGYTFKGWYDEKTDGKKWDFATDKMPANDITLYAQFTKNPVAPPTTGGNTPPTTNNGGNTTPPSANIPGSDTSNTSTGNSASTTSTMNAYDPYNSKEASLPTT
Briefly: not stated (cited). Particulars: printed as KD = 103 CFU/mL, read as 10^3; whole-cell units; 5' amine (immobilized by carbodiimide chemistry on ALG-thiomer/Pt); 5' thiol version also made; PBS, whole L. monocytogenes cells, 15 min capture at pH 7 (extended brush), EIS at pH 3 (collapsed), room temperature; also chicken broth.

As for “ATCCATGGGGCGGAGATGAGGGGGAGGAGGGCGGGTACCCGGTTGAT [A8 anti-Internalin A aptamer]”, the Kd was 1000 CFU/mL.
